Measured values as given in the supplement of paper PMC9112550, “Optimization of the antimicrobial peptide Bac7 by deep mutational scanning” (BMC Biology, 2022).

Tested on: Escherichia coli TOP10
Experiment: shrunken log2 fold change of peptide-encoding DNA abundance (4.5 h post-induction vs induction); higher = less antimicrobial activity (less host growth inhibition)
Settings: time post-induction: 4.5 h; library: site-saturation at positions 5, 18, 19, 20
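Note: peptides expressed intracellularly from a pBAD plasmid library in pooled LB shake-flask culture, induced with 0.3% L-arabinose, DNA abundance read by NGS, three biological replicates, DESeq2 with apeglm shrinkage.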

Sequence	shrunken log2 fold change
RRIRQRPPRLPRPRPRPMLWPRP	-0.00459
RRIRNRPPRLPRPRPRPCKYPRP	-1.14
RRIRGRPPRLPRPRPRPWVKPRP	0.0642
RRIRLRPPRLPRPRPRPYRAPRP	-0.21
RRIRHRPPRLPRPRPRPWHRPRP	-0.119
RRIRSRPPRLPRPRPRPVHPPRP	0.245
RRIRQRPPRLPRPRPRPIKAPRP	0.00249
RRIRGRPPRLPRPRPRPDCEPRP	1.44
RRIRARPPRLPRPRPRPFKMPRP	-0.253
RRIRIRPPRLPRPRPRPPRMPRP	0.21
RRIRRRPPRLPRPRPRPMASPRP	-0.00822
RRIRQRPPRLPRPRPRPCVIPRP	-0.409
RRIRWRPPRLPRPRPRPFPKPRP	0.0146
RRIRPRPPRLPRPRPRPLSIPRP	-0.498
RRIRWRPPRLPRPRPRPHHIPRP	-0.612
RRIRERPPRLPRPRPRPNWSPRP	-0.3
RRIRFRPPRLPRPRPRPFWKPRP	-0.0963
RRIRPRPPRLPRPRPRPGVNPRP	-0.342
RRIRLRPPRLPRPRPRPVARPRP	0.551
RRIRFRPPRLPRPRPRPYVMPRP	-0.651
RRIRVRPPRLPRPRPRPPGSPRP	0.342
RRIRRRPPRLPRPRPRPNPDPRP	0.314
RRIRCRPPRLPRPRPRPKWIPRP	-0.366
RRIRRRPPRLPRPRPRPMKWPRP	0.016
RRIRVRPPRLPRPRPRPGWKPRP	0.169

Sequence	shrunken log2 fold change
RRIRGRPPRLPRPRPRPHEEPRP	0.383
RRIRRRPPRLPRPRPRPAIAPRP	0.468
RRIRIRPPRLPRPRPRPHIPPRP	-0.482
RRIRQRPPRLPRPRPRPHCKPRP	-0.187
RRIRGRPPRLPRPRPRPYRVPRP	-0.0183
RRIRARPPRLPRPRPRPFTKPRP	-0.295
RRIRMRPPRLPRPRPRPPAKPRP	1.06
RRIRWRPPRLPRPRPRPQSQPRP	0.00151
RRIRFRPPRLPRPRPRPKTQPRP	0.397
RRIRLRPPRLPRPRPRPCIAPRP	-0.185
RRIRIRPPRLPRPRPRPRTCPRP	-0.282
RRIRTRPPRLPRPRPRPPWEPRP	0.506
RRIRARPPRLPRPRPRPASAPRP	0.52
RRIRNRPPRLPRPRPRPPLTPRP	0.0501
RRIRSRPPRLPRPRPRPPQKPRP	0.463
RRIRHRPPRLPRPRPRPKKDPRP	-0.494
RRIRCRPPRLPRPRPRPKLFPRP	0.132
RRIRQRPPRLPRPRPRPDHKPRP	-0.0609
RRIRGRPPRLPRPRPRPNPGPRP	0.158
RRIRKRPPRLPRPRPRPQGEPRP	-0.000844
RRIRNRPPRLPRPRPRPHRFPRP	0.0175
RRIRIRPPRLPRPRPRPWMDPRP	0.0312
RRIRMRPPRLPRPRPRPDQEPRP	0.0392
RRIRFRPPRLPRPRPRPPWCPRP	0.0236
RRIRSRPPRLPRPRPRPRHPPRP	0.215

Sequence	shrunken log2 fold change
RRIRDRPPRLPRPRPRPAMIPRP	-0.129
RRIRCRPPRLPRPRPRPSWIPRP	-0.732
RRIRHRPPRLPRPRPRPQMKPRP	-0.553
RRIRIRPPRLPRPRPRPCPTPRP	-0.0511
RRIRHRPPRLPRPRPRPMYVPRP	0.0136
RRIRRRPPRLPRPRPRPAPPPRP	0.778
RRIRVRPPRLPRPRPRPWVSPRP	-0.278
RRIRMRPPRLPRPRPRPNSWPRP	0.122
RRIRKRPPRLPRPRPRPQTLPRP	0.0931
RRIRQRPPRLPRPRPRPTMIPRP	0.151
RRIRNRPPRLPRPRPRPVDGPRP	-0.175
RRIRFRPPRLPRPRPRPIHKPRP	-0.775
RRIRHRPPRLPRPRPRPNRDPRP	-0.0852
RRIRMRPPRLPRPRPRPMYKPRP	-0.472
RRIRRRPPRLPRPRPRPMWAPRP	0.161
RRIRDRPPRLPRPRPRPQLVPRP	0.0777
RRIRTRPPRLPRPRPRPYMQPRP	-0.298
RRIRARPPRLPRPRPRPYTRPRP	-0.124
RRIRERPPRLPRPRPRPHLMPRP	1.19
RRIRRRPPRLPRPRPRPLNTPRP	-0.244
RRIRHRPPRLPRPRPRPIMVPRP	-0.000687
RRIRKRPPRLPRPRPRPHCLPRP	-0.0309
RRIRHRPPRLPRPRPRPVRSPRP	0.172
RRIRYRPPRLPRPRPRPKFMPRP	-0.633
RRIRARPPRLPRPRPRPRAKPRP	0.868

Sequence	shrunken log2 fold change
RRIRKRPPRLPRPRPRPPSDPRP	0.75
RRIRWRPPRLPRPRPRPWIQPRP	0.0861
RRIRCRPPRLPRPRPRPNFTPRP	-0.158
RRIRSRPPRLPRPRPRPYTFPRP	-1.01
RRIRHRPPRLPRPRPRPTSWPRP	0.091
RRIRSRPPRLPRPRPRPGINPRP	0.00688
RRIRLRPPRLPRPRPRPYVQPRP	-0.144
RRIRSRPPRLPRPRPRPLRTPRP	0.787
RRIRRRPPRLPRPRPRPDTAPRP	-0.0709
RRIRERPPRLPRPRPRPVSFPRP	-0.0647
RRIRERPPRLPRPRPRPFCSPRP	-0.204
RRIRARPPRLPRPRPRPGAFPRP	0.454
RRIRERPPRLPRPRPRPVPWPRP	0.0881
RRIRARPPRLPRPRPRPRYEPRP	0.0403
RRIRERPPRLPRPRPRPNQIPRP	-0.293
RRIRPRPPRLPRPRPRPAESPRP	0.44
RRIRCRPPRLPRPRPRPNQCPRP	2.64
RRIRCRPPRLPRPRPRPGVDPRP	-0.0475
RRIRYRPPRLPRPRPRPNDYPRP	-0.0969
RRIRRRPPRLPRPRPRPPSTPRP	0.585
RRIRMRPPRLPRPRPRPAPYPRP	0.576
RRIRTRPPRLPRPRPRPAMHPRP	0.289
RRIRYRPPRLPRPRPRPSMLPRP	-1.07
RRIRPRPPRLPRPRPRPVNWPRP	0.297
RRIRTRPPRLPRPRPRPCNLPRP	-0.00247

Sequence	shrunken log2 fold change
RRIRARPPRLPRPRPRPREEPRP	0.579
RRIRERPPRLPRPRPRPQYGPRP	-0.0797
RRIRRRPPRLPRPRPRPYHYPRP	-0.717
RRIRNRPPRLPRPRPRPFEMPRP	0.0463
RRIRDRPPRLPRPRPRPGQTPRP	0.032
RRIRFRPPRLPRPRPRPLWFPRP	0.00985
RRIRIRPPRLPRPRPRPQIMPRP	-1.16
RRIRSRPPRLPRPRPRPADQPRP	0.58
RRIRSRPPRLPRPRPRPSISPRP	-0.584
RRIRYRPPRLPRPRPRPDTPPRP	0.0497
RRIRYRPPRLPRPRPRPIIYPRP	-0.522
RRIRARPPRLPRPRPRPCAMPRP	0.397
RRIRTRPPRLPRPRPRPETGPRP	-0.00371
RRIRERPPRLPRPRPRPLDTPRP	0.213
RRIRWRPPRLPRPRPRPFFKPRP	-0.0879
RRIRHRPPRLPRPRPRPFNPPRP	-0.17
RRIRARPPRLPRPRPRPGSFPRP	0.495
RRIRWRPPRLPRPRPRPLFGPRP	0.352
RRIRRRPPRLPRPRPRPWPFPRP	-0.0442
RRIRYRPPRLPRPRPRPECMPRP	-0.417
RRIRSRPPRLPRPRPRPHLLPRP	-0.097
RRIRFRPPRLPRPRPRPFNPPRP	-0.733
RRIRHRPPRLPRPRPRPVEKPRP	-0.0342
RRIRWRPPRLPRPRPRPNHWPRP	-0.0748
RRIRTRPPRLPRPRPRPNYGPRP	-0.363

Sequence	shrunken log2 fold change
RRIRVRPPRLPRPRPRPQEHPRP	-0.251
RRIRIRPPRLPRPRPRPQTWPRP	-0.169
RRIRLRPPRLPRPRPRPFRAPRP	0.113
RRIRWRPPRLPRPRPRPFEFPRP	-0.182
RRIRMRPPRLPRPRPRPSDLPRP	-0.035
RRIRMRPPRLPRPRPRPYLAPRP	-0.0134
RRIRFRPPRLPRPRPRPYEPPRP	-0.204
RRIRIRPPRLPRPRPRPENGPRP	-0.219
RRIRVRPPRLPRPRPRPGLHPRP	-0.0936
RRIRHRPPRLPRPRPRPIPTPRP	-0.218
RRIRFRPPRLPRPRPRPSKRPRP	-0.565
RRIRDRPPRLPRPRPRPNINPRP	-0.35
RRIRLRPPRLPRPRPRPETDPRP	0.0033
RRIRWRPPRLPRPRPRPIYYPRP	-0.488
RRIRNRPPRLPRPRPRPITVPRP	-0.0598
RRIRKRPPRLPRPRPRPQSMPRP	-0.00568
RRIRYRPPRLPRPRPRPWCAPRP	-0.255
RRIRLRPPRLPRPRPRPVEQPRP	-0.0062
RRIRIRPPRLPRPRPRPRHPPRP	-0.0642
RRIRTRPPRLPRPRPRPKPCPRP	-0.126
RRIRVRPPRLPRPRPRPREKPRP	0.179
RRIRQRPPRLPRPRPRPLMAPRP	-0.0462
RRIRGRPPRLPRPRPRPSCDPRP	0.543
RRIRYRPPRLPRPRPRPLQWPRP	-0.0328
RRIRMRPPRLPRPRPRPAAYPRP	0.206
